Test [1] deals with fluorophore-conjugated Aβ40 (HF488Aβ40). The experiment in a line: other fluorescence titration; fluorescence quenching of fluorophore-conjugated Aβ40 (HF488Aβ40) by ZF2–4; conditions in Figure S9.
In test [2] the target is uniformly 15N-labeled Aβ40. The experiment in a line: NMR titration; 2D 1H–15N SOFAST–HMQC of 20 µM 15N-labeled Aβ40 with 200 µM ZF2–4 or ZFx′; 20 mM HEPES, pH 7.4, 1 mM DTT, 10% v/v D2O; 10°C.
Test [3] addresses amyloid-β 40 (Aβ40).
In test [4] the target is amyloid-β 40 (Aβ40). The experiment in a line: ITC; ZF2–4 (300 µM) titrated into monomeric Aβ40 (20 µM); one-set-of-sites model; 20 mM HEPES, pH 7.4, 1 mM DTT; 10°C; heat of dilution of ZF2–4 subtracted. On the technique in general: Isothermal titration calorimetry measures the heat released or taken up as one component is titrated into another.

In test [1], “ZF2–4 (tandem array of three Cys2His2-type zinc finger modules of PARIS) (domain or fragment)” returned a Kd of 320 nM and a stoichiometry N (Aβ40 per ZF2–4) of 1.5. Further, the average decrease in NMR signal intensity of 15N-labeled Aβ40 in test [2] is 41.9%. Moreover, the decrease in the size of Aβ40 liquid droplets (LLPS, confocal microscopy) with equimolar ZF2–4 (100 µM each) relative to Aβ40 alone in the test with amyloid-β 40 (Aβ40) [3] is 93.7%. Besides, in the test with amyloid-β 40 (Aβ40) [4], the Kd worked out at 1960 nM, the dH is -1.31 kcal/mol and the stoichiometry N (Aβ40 per ZF2–4) amounted to 1.7.

Usually Kd stands for a measure of binding affinity in units of concentration. Lower therefore signals a tighter complex.

For the origin of these results see publication PMC13624870.
